Paper PMC6430397, “The pharmacological properties of 3-arm or 4-arm DOTA constructs for conjugation to α-melanocyte-stimulating hormone analogues for melanoma imaging” (PLoS ONE, 2019)

Tests used:
[1] = Partition coefficient, n-octanol / 0.1 M phosphate buffer; type: physicochemical; settings: pH 7.4
Protocol: The partition coefficients of ^111In-labeled 3-arm and 4-arm DOTA-α-MSH were measured using 2.0 mL n-octanol as the organic phase and 2.0 mL 0.l M phosphate buffer as the aqueous phase (pH 7.4 for plasma). N-octanol and the buffer were pre-mixed twice using a mechanical mixer for 1 min at room temperature. Then, 20 µL radioactive sample were added and mixed twice using a mechanical mixer for 1 min at room temperature. The radioactivity of 200 uL of each phase was measured after centrifugation. Calculation of log (n-octanol/0.l M phosphate buffer) was performed.

[2] = Biological distribution in B16-F1 melanoma-bearing mice; type: in vivo, mouse; settings: male, C57BL6, mouse, in vivo, iv, 37 kBq/mouse, total radioactivity, Biological distribution
Protocol: C57BL6 male mice (5 weeks old) were transplanted with B16-F1 cells (5 × 10^5 cells/100 μL) into the thigh of the mice. […] The mice were housed and continuously monitored each day for 2 weeks in a 12-hour light/12-hour dark cycle with free access to food and water. The tumor size reached 8.7 ± 2.8 mm at 2 weeks after transplant of cells. Two mice with tumor sizes of 13 and 15 mm were excluded from our experiments. Mice with a tumor size <10 mm were fasted with no food overnight with water supplied ad libitum before experiments.
For biological distribution studies, B16-F1-bearing mice were administered ^111In-labeled 3-arm or 4-arm DOTA-α-MSH via the tail vein (37 kBq/mouse). At 10, 30, 60, 120, and 180 min after injection, the mice were euthanized under isoflurane (n = 3 per time point), and the following tissues were collected: brain, lung, heart, stomach, liver, small intestine, large intestine, kidney, blood, muscle, and B16-F1 melanoma. Tissues were weighed, and radioactivity was quantified using an automated γ-ray counter to calculate the percent injected dose (%ID) or percent injected dose per gram of tissue (%ID/g).
For SPECT imaging, ^111In-labeled 3-arm or 4-arm DOTA-α-MSH was injected into the tail vein of four B16-F1-bearing mice in total (37 MBq/mouse). For SPECT imaging, acquisition was started at 10 min after injection and continued every 10 min for 180 min. The data were reconstructed using the ordered subset expectation maximization method with 16 subsets and six iterations including no scatter and attenuation correction. The voxel size was set to 0.8×0.8×0.8 mm. Post-reconstruction smoothing filtering was applied using a 1.0-mm Gaussian filter. […] In these images, three to five regions of interest were placed over the kidney, muscle, and B16-F1 melanoma in which accumulation could be seen, and the time activity curve of each was obtained as the %ID/g.

MC1-R = target: T1, MC1-R (Mus musculus, UniProt Q01727); settings: endogenous ligand; cited from earlier work
T1 construct: host or cells: B16-F1 mouse melanoma cells
T1 sequence (Q01727 whole entry): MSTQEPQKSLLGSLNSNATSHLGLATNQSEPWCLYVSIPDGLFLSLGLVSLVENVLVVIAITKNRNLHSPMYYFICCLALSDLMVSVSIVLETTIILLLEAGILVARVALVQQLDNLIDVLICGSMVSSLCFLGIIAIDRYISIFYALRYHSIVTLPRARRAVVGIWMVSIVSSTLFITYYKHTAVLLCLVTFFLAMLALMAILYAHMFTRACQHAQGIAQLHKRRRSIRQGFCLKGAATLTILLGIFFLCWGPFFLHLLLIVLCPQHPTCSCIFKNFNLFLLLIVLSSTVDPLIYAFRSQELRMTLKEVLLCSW
Text: The melanocortin 1 receptor (MC1-R) is one of the most targeted melanoma antigens and belongs to the melanocortin family of G protein-coupled receptors, which consists of five receptor subtypes, MC1-R to MC5-R. MC1-R is expressed in nearly all primary and metastatic melanomas and 95% of uveal melanomas. MC1-R is an attractive receptor for molecular-targeted imaging and radionuclide therapy of melanoma. α-melanocyte-stimulating hormone (α-MSH), a tridecapeptide, is an endogenous ligand for the melanocortin family of receptors, with subnanomolar binding affinity to MC1-R [5].

CSCC[C@H](NC(=O)[C@H](CO)NC(=O)[C@H](Cc1ccc(O)cc1)NC(=O)[C@H](CO)NC(C)=O)C(=O)N[C@@H](CCC(=O)O)C(=O)N[C@@H](Cc1c[nH]cn1)C(=O)N[C@@H](Cc1ccccc1)C(=O)N[C@@H](CCCNC(=N)N)C(=O)N[C@@H](Cc1c[nH]c2ccccc12)C(=O)NCC(=O)N[C@@H](CCCCNC(=O)CN1CCN(CC(=O)O)CCN(CC(=O)O)CCN(CC(=O)O)CC1)C(=O)N1CCC[C@H]1C(=O)N[C@H](C(=O)O)C(C)C [^111In-labeled 3-arm DOTA-α-MSH, metal not drawn]
logD [1]: -0.28 ± 0.03
tissue uptake at 10 min ([2]; Blood): 3.11 %ID/g
tissue uptake at 0.5 h ([2]; Blood): 1.91 %ID/g
tissue uptake at 1 h ([2]; Blood): 0.89 %ID/g
tissue uptake at 2 h ([2]; Blood): 0.21 %ID/g
tissue uptake at 3 h ([2]; Blood): 0.05 %ID/g
tissue uptake at 10 min ([2]; Brain): 0.04 %ID/g
tissue uptake at 0.5 h ([2]; Brain): 0.05 %ID/g
tissue uptake at 1 h ([2]; Brain): 0.05 %ID/g
tissue uptake at 2 h ([2]; Brain): 0.03 %ID/g
tissue uptake at 3 h ([2]; Brain): 0.02 %ID/g
tissue uptake at 10 min ([2]; Heart): 0.74 %ID/g
tissue uptake at 0.5 h ([2]; Heart): 0.66 %ID/g
tissue uptake at 1 h ([2]; Heart): 0.46 %ID/g
tissue uptake at 2 h ([2]; Heart): 0.14 %ID/g
tissue uptake at 3 h ([2]; Heart): 0.06 %ID/g
tissue uptake at 10 min ([2]; Kidney): 23.6 %ID/g
tissue uptake at 0.5 h ([2]; Kidney): 18.4 %ID/g
tissue uptake at 1 h ([2]; Kidney): 11.9 %ID/g
tissue uptake at 2 h ([2]; Kidney): 8.42 %ID/g
tissue uptake at 3 h ([2]; Kidney): 7.07 %ID/g
tissue uptake dose at 10 min ([2]; Large intestine): 0.03 %ID
tissue uptake dose at 0.5 h ([2]; Large intestine): 0.08 %ID
tissue uptake dose at 1 h ([2]; Large intestine): 0.09 %ID
tissue uptake dose at 2 h ([2]; Large intestine): 0.05 %ID
tissue uptake dose at 3 h ([2]; Large intestine): 0.04 %ID
tissue uptake at 10 min ([2]; Liver): 2.3 %ID/g
tissue uptake at 0.5 h ([2]; Liver): 1.15 %ID/g
tissue uptake at 1 h ([2]; Liver): 1.12 %ID/g
tissue uptake at 2 h ([2]; Liver): 1.23 %ID/g
tissue uptake at 3 h ([2]; Liver): 0.72 %ID/g
tissue uptake at 10 min ([2]; Lung): 0.51 %ID/g
tissue uptake at 0.5 h ([2]; Lung): 0.66 %ID/g
tissue uptake at 1 h ([2]; Lung): 0.31 %ID/g
tissue uptake at 2 h ([2]; Lung): 0.27 %ID/g
tissue uptake at 3 h ([2]; Lung): 0.1 %ID/g
tissue uptake at 10 min ([2]; Melanoma): 1.71 %ID/g
tissue uptake at 0.5 h ([2]; Melanoma): 1.81 %ID/g
tissue uptake at 1 h ([2]; Melanoma): 2.49 %ID/g
tissue uptake at 2 h ([2]; Melanoma): 3.36 %ID/g
tissue uptake at 3 h ([2]; Melanoma): 3.51 %ID/g
tissue uptake at 10 min ([2]; Muscle): 0.21 %ID/g
tissue uptake at 0.5 h ([2]; Muscle): 0.2 %ID/g
tissue uptake at 1 h ([2]; Muscle): 0.15 %ID/g
tissue uptake at 2 h ([2]; Muscle): 0.09 %ID/g
tissue uptake at 3 h ([2]; Muscle): 0.05 %ID/g
tissue uptake dose at 10 min ([2]; Small intestine): 0.04 %ID
tissue uptake dose at 0.5 h ([2]; Small intestine): 0.08 %ID
tissue uptake dose at 1 h ([2]; Small intestine): 0.09 %ID
tissue uptake dose at 2 h ([2]; Small intestine): 0.12 %ID
tissue uptake dose at 3 h ([2]; Small intestine): 0.1 %ID
tissue uptake dose at 10 min ([2]; Stomach): 0.06 %ID
tissue uptake dose at 0.5 h ([2]; Stomach): 0.1 %ID
tissue uptake dose at 1 h ([2]; Stomach): 0.12 %ID
tissue uptake dose at 2 h ([2]; Stomach): 0.11 %ID
tissue uptake dose at 3 h ([2]; Stomach): 0.12 %ID

α-melanocyte-stimulating hormone [α-MSH]
binding affinity to MC1-R (MC1-R): subnanomolar
